Results from patent US20080085280A1.

Columns and labels:
[1] = target: FcαRIR209L/γ chimeric receptor (human) (UniProt P24071); experiment: cell-based or functional assay
[2] = target: wild-type human FcαRI (human) (UniProt P24071); experiment: cell-based or functional assay

For “anti-FcαRI Fab A77 (Fab fragment of anti-FcαRI mAb, IgG1κ, clone A77)”, the inhibition of IgE-mediated degranulation against irrelevant control Fab [1] was 91%, the Fab concentration giving maximal inhibition of degranulation [2] was 1 to 10 µg/mL and the inhibition of FcεRI-induced degranulation, 10 µg/ml Fab [2] was > 50%. For the same substance, the inhibition of IgE-mediated degranulation (β-hexosaminidase release), 10 µg/ml Fab [2] was 74%, the inhibition of IgE-mediated degranulation against irrelevant control Fab [2] was 72% and the inhibition of IgG-mediated phagocytosis of E. coli by human blood monocytes [2] was > 80%.
